Data on one molecule can be found in patent publication US20090263380A1 (published 2009).

For assay [1], the target named is T1, human monoclonal anti-C1 domain of Factor VIII antibody RHD5.
T1 construct: also called RHD5 antibody; RHD5 Ab
Kind of assay: competition ELISA, 18B6 with RHD5 2 µg/ml, RHD5 binding to coated recFVIII. Here is the method:
Recombinant Factor VIII (recFVIII) (Baxter) at 2 μg/ml in a glycine buffer, 50 μl/well, was insolubilized, then left for 2 hours at room temperature. The RHD5 antibody (or an irrelevant IgG1) at 0.6 μg/ml final concentration was pre-incubated over 2 hours with the culture supernatants in a dilution 1/1, 1/2 and 1/4 in Magic Buffer. The wells were washed 3 times with a PBS/Tween buffer, then saturated with 100 μl/well of Magic Buffer (30 min at room temperature). Afterwards, the culture supernatant was incubated with 50 μl of RHD5 (or irrelevant IgG1) (2 hours at room temperature, Magic Buffer), then, 3 washings were performed. The RHD5 antibodies bound to insolubilized recFVIII were detected by addition of 50 μl/well of a mouse polyclonal human anti-IgG HRP-labelled (Southern Biotechnology) antibodies solution of 1 μg/ml in Magic Buffer. Three successive washings were carried out with PBS/Tween, then revelation carried out with a chromogen (OPD ortho-phenyl diamine) and a reading of the obtained coloration intensity with a reader having filters corresponding to wavelengths 490/650 nm (reader Emax Molecular Devithese, Sunnyvale, Calif.).
The inhibition of RHD5 antibody binding to insolubilized recombinant FVIII was measured according to the protocol described in point IV. The concentration of used RHD5 is equal to 2 μg/ml.

Assay [2] addresses T1, human monoclonal anti-C1 domain of …. The experiment in a line: SPR (BIAcore), RHD5 immobilized on CM5, 18B6 infused. Here is the method: The binding kinetics of the anti-idiotypic antibody 18B6 to inhibitor RHD5 antibody was evaluated by use of the <<Surface plasmon resonance Biacore>> method using the Pharmacia Biosensor BIAcore (Pharmacia Biosensor AB, Uppsala, Sweden). The RHD5 antibodies were immobilized on the activated surface of a CM5 probe. The anti-idiotypic antibodies 18B6 were infused in different RHD5 concentrations immobilized on the surface of the probe. The association and dissociation constants were determined: […]

Assay [3] shares this target. Kind of assay: cell-based or functional assay.

T1 sequence (VH, as listed by the source, chain 1 of 2): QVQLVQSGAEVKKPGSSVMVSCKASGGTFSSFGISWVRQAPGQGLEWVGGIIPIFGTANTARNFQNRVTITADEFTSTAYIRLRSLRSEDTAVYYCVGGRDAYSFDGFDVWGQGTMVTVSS
T1 sequence (VL, as listed by the source, chain 2 of 2): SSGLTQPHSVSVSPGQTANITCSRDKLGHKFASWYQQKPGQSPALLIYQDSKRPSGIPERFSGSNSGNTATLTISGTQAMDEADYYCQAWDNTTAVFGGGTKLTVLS

B1: anti-idiotypic antibody 18B6 (antibody, V domains shown)
VH: QVQLQQSGAELAKPGASVKMSCKASGYTFTTYWMHWIKQRPGQDLEWIGYINPTSGYTEYNQNFKDKATLTADKSSSTAYMQLNSLTSEDSAVYFCARSGAYYRYDDAMDSWGQGTSVTVSS
VL: QIVLSQSPAILSASPGEKVTMTCRASSSVSYMNWYQQKPGSSPKPWIYATSNLASGVPARFSGSGSGTSYSLTISRVEAEDAATYYCQQWSSNPPMLTFGAGTKLELK
notes: also called 18B6 anti-RHD5 clone
Take B1: in assay [1], the “inhibition of binding at an equimolar ratio (%)” value worked out at 92% and the “molar ratio RHD5/18B6 giving 50% inhibition” value is 2.5 molar ratio RHD5/18B6. In assay [2], this molecule showed a Kd of 3.4 nM, a koff of 1.45e-05 s⁻¹ and a kon of 4260 M⁻¹ s⁻¹. Further, the “neutralisation of RHD5 inhibitory activity at an equimolar RHD5/18B6 ratio” value in assay [3] was found to be 50%.
